# Laboratory results from PMC9482650, “Quantitative fragmentomics allow affinity mapping of interactomes” (Nature Communications, 2022).
# T1: DFNB31_3, Q9P202
# T1 sequence (Q9P202 811-907, limits assumed, looked up): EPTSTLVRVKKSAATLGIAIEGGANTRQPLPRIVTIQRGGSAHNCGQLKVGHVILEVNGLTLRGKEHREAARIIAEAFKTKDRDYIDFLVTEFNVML
# T2: SNTA1, Q13424
# T2 sequence (Q13424 82-180, limits assumed, looked up): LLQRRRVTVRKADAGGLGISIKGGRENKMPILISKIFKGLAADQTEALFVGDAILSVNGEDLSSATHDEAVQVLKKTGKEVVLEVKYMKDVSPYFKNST
# T3: ARHGEF11, O15085
# T3 sequence (O15085 42-136, limits assumed, looked up): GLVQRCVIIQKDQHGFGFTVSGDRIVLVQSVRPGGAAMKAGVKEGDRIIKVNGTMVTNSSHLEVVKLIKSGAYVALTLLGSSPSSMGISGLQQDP
# T4: CARD11, Q9BXL7
# T4 sequence (Q9BXL7 662-765, limits assumed, looked up): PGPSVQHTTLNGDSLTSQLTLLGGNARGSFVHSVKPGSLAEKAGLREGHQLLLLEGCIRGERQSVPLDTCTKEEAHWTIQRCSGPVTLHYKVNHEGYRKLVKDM
# T5: RADIL, Q96JH8
# T5 sequence (Q96JH8 971-1071, limits assumed, looked up): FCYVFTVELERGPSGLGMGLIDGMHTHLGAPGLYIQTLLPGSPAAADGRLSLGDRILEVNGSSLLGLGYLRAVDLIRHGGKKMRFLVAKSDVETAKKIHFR
# T6: GRIP1_3, Q9Y3R0
# T6 sequence (Q9Y3R0 247-346, limits assumed, looked up): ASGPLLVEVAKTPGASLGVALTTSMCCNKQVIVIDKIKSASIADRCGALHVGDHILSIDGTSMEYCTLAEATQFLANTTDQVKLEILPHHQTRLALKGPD
# T7: NHERF3_1, Q5T2W1
# T7 sequence (Q5T2W1 4-100, limits assumed, looked up): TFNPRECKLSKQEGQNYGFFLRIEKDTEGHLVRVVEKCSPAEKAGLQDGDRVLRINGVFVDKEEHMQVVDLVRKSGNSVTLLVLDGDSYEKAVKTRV
# T8: MPDZ_10, O75970
# T8 sequence (O75970 1624-1722, limits assumed, looked up): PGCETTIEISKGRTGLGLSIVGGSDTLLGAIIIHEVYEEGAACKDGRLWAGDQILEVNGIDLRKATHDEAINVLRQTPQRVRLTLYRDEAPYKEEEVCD
# T9: GRIP1_5, Q9Y3R0
# T9 sequence (Q9Y3R0 568-668, limits assumed, looked up): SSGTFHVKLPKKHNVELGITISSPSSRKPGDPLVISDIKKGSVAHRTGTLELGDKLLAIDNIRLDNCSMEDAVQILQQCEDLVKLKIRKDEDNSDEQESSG
# T10: LNX2_3, Q8N448
# T10 sequence (Q8N448 463-564, limits assumed, looked up): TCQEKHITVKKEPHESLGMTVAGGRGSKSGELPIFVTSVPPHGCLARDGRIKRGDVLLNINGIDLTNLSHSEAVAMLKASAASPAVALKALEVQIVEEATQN
# B1: ADAM17, P78536 (peptide)
# chain: NRVDSKETEC
# B2: NECTIN3, Q9NQS3 (peptide)
# chain: SVISRREWYV
# Molecular target: T1, DFNB31_3, Q9P202
# Assay: holdup assay
# Design: key: below the threshold = too weak to quantify, mostly under pKd 3.1 to 4
# Conditions: plain residues with an end cap or a label only (N-terminal biotin on a linker: ado-ado)
row,pKd,Binder
1,3.92,B1
2,3.52,B2

# Molecular target: T2, SNTA1, Q13424
# Assay: holdup assay
# Design: key: below the threshold = too weak to quantify, mostly under pKd 3.1 to 4
# Conditions: plain residues with an end cap or a label only (N-terminal biotin on a linker: ado-ado)
row,pKd,Binder
1,4.7,B1
2,3.48,B2

# Molecular target: T3, ARHGEF11, O15085
# Assay: holdup assay
# Design: key: below the threshold = too weak to quantify, mostly under pKd 3.1 to 4
# Conditions: plain residues with an end cap or a label only (N-terminal biotin on a linker: ado-ado)
row,pKd,Binder
1,3.59,B1
2,4.55,B2

# Molecular target: SCRIB_3, Q14160
# Assay: holdup assay
# Design: key: below the threshold = too weak to quantify, mostly under pKd 3.1 to 4
# Conditions: plain residues with an end cap or a label only (N-terminal biotin on a linker: ado-ado)
# Sequence of SCRIB_3, Q14160 (Q14160 999-1103): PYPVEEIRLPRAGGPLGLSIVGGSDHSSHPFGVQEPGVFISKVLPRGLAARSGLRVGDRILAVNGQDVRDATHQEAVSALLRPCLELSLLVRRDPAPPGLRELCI
row,pKd,Binder
1,4.58,B1
2,3.72,B2

# Molecular target: T4, CARD11, Q9BXL7
# Assay: holdup assay
# Design: key: below the threshold = too weak to quantify, mostly under pKd 3.1 to 4
# Conditions: plain residues with an end cap or a label only (N-terminal biotin on a linker: ado-ado)
row,pKd,Binder
1,below the threshold,B1
2,below the threshold,B2

# Molecular target: MAGI2_5, Q86UL8
# Assay: holdup assay
# Design: key: below the threshold = too weak to quantify, mostly under pKd 3.1 to 4
# Conditions: plain residues with an end cap or a label only (N-terminal biotin on a linker: ado-ado)
# Sequence of MAGI2_5, Q86UL8 (Q86UL8 915-1017): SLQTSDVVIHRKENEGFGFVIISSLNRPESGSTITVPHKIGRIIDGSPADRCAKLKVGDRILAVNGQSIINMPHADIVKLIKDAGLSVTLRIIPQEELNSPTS
row,pKd,Binder
1,3.92,B1
2,below the threshold,B2

# Molecular target: GRIP2_3, Q9C0E4
# Assay: holdup assay
# Design: key: below the threshold = too weak to quantify, mostly under pKd 3.1 to 4
# Conditions: plain residues with an end cap or a label only (N-terminal biotin on a linker: ado-ado)
# Sequence of GRIP2_3, Q9C0E4 (Q9C0E4 238-339): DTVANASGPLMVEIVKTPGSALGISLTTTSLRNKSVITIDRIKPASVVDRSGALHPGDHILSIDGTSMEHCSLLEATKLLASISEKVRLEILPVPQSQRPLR
row,pKd,Binder
1,below the threshold,B1
2,below the threshold,B2

# Molecular target: MAGI2_6, Q86UL8
# Assay: holdup assay
# Design: key: below the threshold = too weak to quantify, mostly under pKd 3.1 to 4
# Conditions: plain residues with an end cap or a label only (N-terminal biotin on a linker: ado-ado)
# Sequence of MAGI2_6, Q86UL8 (Q86UL8 1141-1229): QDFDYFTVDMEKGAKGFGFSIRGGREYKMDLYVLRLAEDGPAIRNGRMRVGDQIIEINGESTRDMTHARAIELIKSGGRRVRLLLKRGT
row,pKd,Binder
1,4.06,B1
2,3.76,B2

# Molecular target: GRIP2_5, Q9C0E4
# Assay: holdup assay
# Design: key: below the threshold = too weak to quantify, mostly under pKd 3.1 to 4
# Conditions: plain residues with an end cap or a label only (N-terminal biotin on a linker: ado-ado)
# Sequence of GRIP2_5, Q9C0E4 (Q9C0E4 544-642): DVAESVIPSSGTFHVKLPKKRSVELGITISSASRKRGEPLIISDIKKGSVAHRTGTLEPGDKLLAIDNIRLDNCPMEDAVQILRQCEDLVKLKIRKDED
row,pKd,Binder
1,below the threshold,B1
2,below the threshold,B2

# Molecular target: NHERF4_2, Q86UT5
# Assay: holdup assay
# Design: key: below the threshold = too weak to quantify, mostly under pKd 3.1 to 4
# Conditions: plain residues with an end cap or a label only (N-terminal biotin on a linker: ado-ado)
# Sequence of NHERF4_2, Q86UT5 (Q86UT5 220-308): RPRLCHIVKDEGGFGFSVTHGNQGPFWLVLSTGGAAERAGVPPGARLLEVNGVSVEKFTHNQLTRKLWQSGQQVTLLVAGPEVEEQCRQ
row,pKd,Binder
1,below the threshold,B1
2,below the threshold,B2

# Molecular target: T5, RADIL, Q96JH8
# Assay: holdup assay
# Design: key: below the threshold = too weak to quantify, mostly under pKd 3.1 to 4
# Conditions: plain residues with an end cap or a label only (N-terminal biotin on a linker: ado-ado)
row,pKd,Binder
1,below the threshold,B1
2,5.27,B2

# Molecular target: FRMPD2_2, Q68DX3
# Assay: holdup assay
# Design: key: below the threshold = too weak to quantify, mostly under pKd 3.1 to 4
# Conditions: plain residues with an end cap or a label only (N-terminal biotin on a linker: ado-ado)
# Sequence of FRMPD2_2, Q68DX3 (Q68DX3 944-1038): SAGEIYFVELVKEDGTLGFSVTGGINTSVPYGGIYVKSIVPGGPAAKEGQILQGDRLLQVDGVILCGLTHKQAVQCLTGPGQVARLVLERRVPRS
row,pKd,Binder
1,below the threshold,B1
2,4.14,B2

# Molecular target: DLG2_3, Q15700
# Assay: holdup assay
# Design: key: below the threshold = too weak to quantify, mostly under pKd 3.1 to 4
# Conditions: plain residues with an end cap or a label only (N-terminal biotin on a linker: ado-ado)
row,pKd,Binder
1,3.97,B1
2,4.05,B2

# Molecular target: GORASP1, Q9BQQ3
# Assay: holdup assay
# Design: key: below the threshold = too weak to quantify, mostly under pKd 3.1 to 4
# Conditions: plain residues with an end cap or a label only (N-terminal biotin on a linker: ado-ado)
# Sequence of GORASP1, Q9BQQ3 (Q9BQQ3 1-208): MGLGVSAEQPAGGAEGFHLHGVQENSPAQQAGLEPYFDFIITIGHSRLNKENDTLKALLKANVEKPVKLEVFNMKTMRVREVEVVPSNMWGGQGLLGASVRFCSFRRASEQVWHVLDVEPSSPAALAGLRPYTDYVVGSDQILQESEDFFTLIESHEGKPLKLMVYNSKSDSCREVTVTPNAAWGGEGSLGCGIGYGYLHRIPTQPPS
row,pKd,Binder
1,below the threshold,B1
2,4.63,B2

# Molecular target: T6, GRIP1_3, Q9Y3R0
# Assay: holdup assay
# Design: key: below the threshold = too weak to quantify, mostly under pKd 3.1 to 4
# Conditions: plain residues with an end cap or a label only (N-terminal biotin on a linker: ado-ado)
row,pKd,Binder
1,below the threshold,B1
2,below the threshold,B2

# Molecular target: T7, NHERF3_1, Q5T2W1
# Assay: holdup assay
# Design: key: below the threshold = too weak to quantify, mostly under pKd 3.1 to 4
# Conditions: plain residues with an end cap or a label only (N-terminal biotin on a linker: ado-ado)
row,pKd,Binder
1,3.81,B1
2,4.52,B2

# Molecular target: MAGI3_2, Q5TCQ9
# Assay: holdup assay
# Design: key: below the threshold = too weak to quantify, mostly under pKd 3.1 to 4
# Conditions: plain residues with an end cap or a label only (N-terminal biotin on a linker: ado-ado)
# Sequence of MAGI3_2, Q5TCQ9 (Q5TCQ9 398-503): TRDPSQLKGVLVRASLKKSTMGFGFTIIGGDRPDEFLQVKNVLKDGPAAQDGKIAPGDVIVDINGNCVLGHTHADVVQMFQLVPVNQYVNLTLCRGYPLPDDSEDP
row,pKd,Binder
1,below the threshold,B1
2,5.74,B2

# Molecular target: Inadl_4, Q8NI35
# Assay: holdup assay
# Design: key: below the threshold = too weak to quantify, mostly under pKd 3.1 to 4
# Conditions: plain residues with an end cap or a label only (N-terminal biotin on a linker: ado-ado)
# Sequence of Inadl_4, Q8NI35 (Q8NI35 547-651): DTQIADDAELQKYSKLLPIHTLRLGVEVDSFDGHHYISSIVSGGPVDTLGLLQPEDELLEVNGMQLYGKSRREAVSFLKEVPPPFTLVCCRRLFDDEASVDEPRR
row,pKd,Binder
1,below the threshold,B1
2,below the threshold,B2

# Molecular target: T8, MPDZ_10, O75970
# Assay: holdup assay
# Design: key: below the threshold = too weak to quantify, mostly under pKd 3.1 to 4
# Conditions: plain residues with an end cap or a label only (N-terminal biotin on a linker: ado-ado)
row,pKd,Binder
1,below the threshold,B1
2,below the threshold,B2

# Molecular target: DLG1_2, Q12959
# Assay: holdup assay
# Design: key: below the threshold = too weak to quantify, mostly under pKd 3.1 to 4
# Conditions: plain residues with an end cap or a label only (N-terminal biotin on a linker: ado-ado)
# Sequence of DLG1_2, Q12959 (Q12959 314-412): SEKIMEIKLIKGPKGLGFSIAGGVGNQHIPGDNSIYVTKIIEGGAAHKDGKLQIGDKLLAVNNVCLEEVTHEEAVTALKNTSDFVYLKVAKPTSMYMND
row,pKd,Binder
1,4.54,B1
2,3.52,B2

# Molecular target: DLG1_3, Q12959
# Assay: holdup assay
# Design: key: below the threshold = too weak to quantify, mostly under pKd 3.1 to 4
# Conditions: plain residues with an end cap or a label only (N-terminal biotin on a linker: ado-ado)
# Sequence of DLG1_3, Q12959 (Q12959 457-571): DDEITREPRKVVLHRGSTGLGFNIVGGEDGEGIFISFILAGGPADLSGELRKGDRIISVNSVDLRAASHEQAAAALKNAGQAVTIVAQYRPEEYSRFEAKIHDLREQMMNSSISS
row,pKd,Binder
1,3.71,B1
2,below the threshold,B2

# Molecular target: PTPN3, P26045
# Assay: holdup assay
# Design: key: below the threshold = too weak to quantify, mostly under pKd 3.1 to 4
# Conditions: plain residues with an end cap or a label only (N-terminal biotin on a linker: ado-ado)
# Sequence of PTPN3, P26045 (P26045 505-587): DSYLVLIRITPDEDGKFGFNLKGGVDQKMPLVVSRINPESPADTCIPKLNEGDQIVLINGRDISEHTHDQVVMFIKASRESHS
row,pKd,Binder
1,4.98,B1
2,4.25,B2

# Molecular target: T9, GRIP1_5, Q9Y3R0
# Assay: holdup assay
# Design: key: below the threshold = too weak to quantify, mostly under pKd 3.1 to 4
# Conditions: plain residues with an end cap or a label only (N-terminal biotin on a linker: ado-ado)
row,pKd,Binder
1,below the threshold,B1
2,below the threshold,B2

# Molecular target: MAGI2_2, Q86UL8
# Assay: holdup assay
# Design: key: below the threshold = too weak to quantify, mostly under pKd 3.1 to 4
# Conditions: plain residues with an end cap or a label only (N-terminal biotin on a linker: ado-ado)
# Sequence of MAGI2_2, Q86UL8 (Q86UL8 410-522): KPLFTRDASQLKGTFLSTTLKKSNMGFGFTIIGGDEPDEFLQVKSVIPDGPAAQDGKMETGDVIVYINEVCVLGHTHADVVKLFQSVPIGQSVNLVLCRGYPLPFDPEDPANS
row,pKd,Binder
1,below the threshold,B1
2,5.35,B2

# Molecular target: T10, LNX2_3, Q8N448
# Assay: holdup assay
# Design: key: below the threshold = too weak to quantify, mostly under pKd 3.1 to 4
# Conditions: plain residues with an end cap or a label only (N-terminal biotin on a linker: ado-ado)
row,pKd,Binder
1,below the threshold,B1
2,below the threshold,B2

# Molecular target: Inadl_1, Q8NI35
# Assay: holdup assay
# Design: key: below the threshold = too weak to quantify, mostly under pKd 3.1 to 4
# Conditions: plain residues with an end cap or a label only (N-terminal biotin on a linker: ado-ado)
# Sequence of Inadl_1, Q8NI35 (Q8NI35 113-229): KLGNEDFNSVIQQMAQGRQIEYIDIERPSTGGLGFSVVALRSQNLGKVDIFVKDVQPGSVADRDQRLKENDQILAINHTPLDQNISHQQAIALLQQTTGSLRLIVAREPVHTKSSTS
row,pKd,Binder
1,below the threshold,B1
2,4.25,B2

# Molecular target: HTRA2, O43464
# Assay: holdup assay
# Design: key: below the threshold = too weak to quantify, mostly under pKd 3.1 to 4
# Conditions: plain residues with an end cap or a label only (N-terminal biotin on a linker: ado-ado)
# Sequence of HTRA2, O43464 (O43464 355-458): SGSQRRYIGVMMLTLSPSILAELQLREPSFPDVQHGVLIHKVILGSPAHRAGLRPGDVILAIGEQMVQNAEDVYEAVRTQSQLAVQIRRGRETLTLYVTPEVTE
row,pKd,Binder
1,below the threshold,B1
2,4.6,B2
